For one substance, activity (bps speed delta vs control) results are on record in US20250382602.

Substitutions are numbered along the chain they refer to.

Data set [1] addresses T1, Dda 1993 T156F T156F (Enterobacteria phage T4) (UniProt P32270).
T1 sequence: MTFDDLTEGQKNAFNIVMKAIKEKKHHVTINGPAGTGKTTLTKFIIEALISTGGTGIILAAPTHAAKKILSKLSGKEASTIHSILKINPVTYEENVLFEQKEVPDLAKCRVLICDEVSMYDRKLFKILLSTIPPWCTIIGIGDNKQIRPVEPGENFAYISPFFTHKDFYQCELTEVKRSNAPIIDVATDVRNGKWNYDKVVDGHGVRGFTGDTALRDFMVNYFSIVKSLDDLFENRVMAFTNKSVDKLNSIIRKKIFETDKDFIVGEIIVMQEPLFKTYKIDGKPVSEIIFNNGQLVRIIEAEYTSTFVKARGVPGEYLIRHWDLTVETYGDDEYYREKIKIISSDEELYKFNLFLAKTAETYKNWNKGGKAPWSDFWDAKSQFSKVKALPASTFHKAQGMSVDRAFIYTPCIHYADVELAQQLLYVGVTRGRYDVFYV
The note with it: nanopore translocation, PromethION; background mutations not given.

The target of data set [2] is T2, Dda 1993 N221E N221E (Enterobacteria phage T4) (UniProt P32270).
T2 sequence: T1 sequence with F156T, N221E
The note with it: nanopore translocation, PromethION; background mutations not given.

The target of data set [3] is T3, Dda 1993 Y350E Y350E (Enterobacteria phage T4) (UniProt P32270).
T3 sequence: T1 sequence with F156T, Y350E
The note with it: nanopore translocation, PromethION; background mutations not given.

In data set [4] the target is T4, Dda 1993 T210K T210K (Enterobacteria phage T4) (UniProt P32270).
T4 sequence: T1 sequence with F156T, T210K
The following applies: nanopore translocation, PromethION; background mutations not given.

Data set [5] concerns the target T5, Dda 1993 T55K T55K (Enterobacteria phage T4) (UniProt P32270).
T5 sequence: T1 sequence with T55K, F156T
The note with it: nanopore translocation, PromethION; background mutations not given.

Data set [6] deals with T6, Dda 1993 354A 354A (Enterobacteria phage T4) (UniProt P32270).
T6 sequence: T1 sequence with F156T, L354A
The note with it: nanopore translocation, FLO-MIN112; background mutations not given.

As for “barcoded 3.6 kb DNA analyte ligated to sequencing Y adaptor”, the activity (bps speed delta vs control) in data set [1] was 13.8; in data set [2], 4.37; in data set [3] it was 6.06; in data set [4], 0.52; in data set [5] it was 8.29; in data set [6], 11.3.
